Test results: patent US20130273046A1 (UNIVERSITE DE LAUSANNE, published 2013)

Key:
mouse EDAR-Fc = target: T1, mouse EDAR-Fc (mouse); test: ELISA on mouse EDAR-Fc (FIG. 6, 9)
T1 construct: also called mouse EDAR (1-183)-Fc; soluble mouse EDAR-Fc fusion protein
Protocol: FIG. 6. Specific binding of the anti-EDAR mAb to both mouse and human EDAR. Graded concentrations of mAbEDAR1-4 or of a control mAb (Aprily 5) were added to wells of a 96-well ELISA plate coated with 100 μl of 1 μg/ml of human EDAR-Fc, mouse EDAR-Fc, human Fas-Fc or Flag-human APRIL. […] The absorbance was measured at 490 nm.
In order to obtain antibodies recognizing both human and mouse EDAR, a feature which would considerably facilitate pre-clinical development of drug candidates, EDAR-deficient mice were immunized with human EDAR. It was then assessed whether monoclonal antibodies generated from these mice indeed recognized EDAR from these two animal species. The wells of microtiter plates were coated with soluble human and mouse EDAR-Fc fusion protein and a negative control protein (human Fas-Fc), blocked and probed with serial dilutions of anti-EDAR monoclonal antibody (mAb) mAbEDAR1, 2, 3 and 4 and a negative control mAb (Aprily 5) (FIG. 6), or with a single dose of mAbEDAR1 to 15 (FIG. 9).

human Fas-Fc = target: T2, human Fas-Fc (human, UniProt P25445 26-170, limits assumed); test: Western blot, 20 ng hFas-Fc (FIG. 7B)
T2 construct: Negative control protein; also called hFas-Fc; not shown: Fc portion
T2 sequence (looked up): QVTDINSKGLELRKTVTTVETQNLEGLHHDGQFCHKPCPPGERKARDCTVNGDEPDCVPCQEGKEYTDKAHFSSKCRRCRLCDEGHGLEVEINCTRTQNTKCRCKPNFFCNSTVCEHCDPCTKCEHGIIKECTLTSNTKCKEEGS
Source text: (§1) The weaker signal obtained with mouse EDAR might be explained by the lower amount of mouse EDAR-Fc loaded on the gel. Binding specificity is established by showing that none of the mAbEDARs does bind to Fas-Fc and Flag-human APRIL (while Flag-human APRIL is recognized by an anti-APRIL mAb). […] The band recognized by mAbEDAR5 in the BSA lane is probably due to a cross-contamination of EDAR-Fc in the neighboring lane.

human EDAR-Fc = target: T3, human EDAR-Fc (human); test: Western blot, non-reducing SDS-PAGE (FIG. 7A)
T3 construct: also called hEDAR-Fc; human EDAR (1-183)-Fc
Source text: (§2) FIG. 7. Use of anti-EDAR mAb in Western blotting.
as §1

[1] = target: T4, human EDAR domains I and II fused to Fc of human IgG1 (human, UniProt Q9UNE0 27-114); test: capture ELISA on EDAR-Fc truncation proteins
T4 construct: Tested as supernatant of transfected 293T cells; also called CRD1 and CRD2 EDAR-Fc truncation protein; fragment made up of domains I and II; not shown: Fc region of human IgG1
T4 sequence: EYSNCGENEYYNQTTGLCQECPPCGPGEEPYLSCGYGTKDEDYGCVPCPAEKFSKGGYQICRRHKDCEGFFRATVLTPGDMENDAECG
Source text: (§3) Epitope mapping of anti-EDAR monoclonal antibodies on recombinant human EDAR by ELISA. (A) Schematic linear representation of human EDAR showing the position of cystein residues (thin horizontal lines), of the putative N-linked glycosylation site (thick horizontal line, N), of the six structural modules (rectangles with rounded corners) composing the three cystein-rich domains (CRD1, CRD2, CRD3), of the transmembrane domain (rectangle, TMD), of the signal peptide (Leader), of the stalk and of the intracellular domain (ID). Amino acid numbers at the junctions of interest are indicated. The arrow indicates the predicted cleavage site of the signal peptide. The scheme is drawn to scale, except for the intracellular domain. (B) Wells of ELISA plates were coated with goat anti-human IgG antibody, blocked, and further incubated with human EDAR-Fc, mouse EDAR-Fc or the indicated human EDAR-Fc truncation proteins in cell supernatants of transfected cells. One well was also left without cell supernatant (Ctrl). The efficient capture of the various EDAR-Fc proteins was controlled using horseradish peroxydase-coupled donkey anti-human IgG antibody. Binding of mAbEDARs were monitored with horseradish peroxydase-coupled anti-mouse IgG antibody.
(§4) EDAR is a transmembrane protein whose extracellular part is composed of three membrane distal cystein-rich domains (CRDs) and of a proximal membrane stalk domain (FIG. 9A). Constructs coding for the entire EDAR protein, domains I and II, domains II and III, domain III and the stalk domain, domains I, II and III alone and the stalk domain alone were assembled with the Fc region of human IgG1, inserted into a mammalian expression vector and transiently transfected in 293T cells. […] The other fragments were not recognized, in particular the fragments made up of either domain I or II alone. mAbEDAR5, 6, 12 and 13 specifically recognized domain I, alone or together with domain II. mAbEDAR9, 14 and 15 only recognized Fc constructs containing the entire EDAR extracellular domain.

Flag-human APRIL = target: T5, Flag-human APRIL (human, UniProt O75888 110-250, limits assumed); test: Western blot (FIG. 7A)
T5 construct: Control antigen; not shown: Flag tag
T5 sequence (looked up): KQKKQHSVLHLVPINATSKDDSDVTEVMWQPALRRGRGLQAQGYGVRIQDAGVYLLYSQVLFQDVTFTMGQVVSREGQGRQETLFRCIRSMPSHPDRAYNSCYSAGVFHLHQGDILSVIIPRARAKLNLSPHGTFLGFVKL
Source text: as §2, §1

[2] = target: T6, human EDAR domain III alone fused to Fc of human IgG1 (human, limits assumed); test: capture ELISA on EDAR-Fc truncation proteins (FIG. 9)
T6 construct: also called CRD3 EDAR-Fc truncation protein; not shown: Fc region of human IgG1
T6 chain: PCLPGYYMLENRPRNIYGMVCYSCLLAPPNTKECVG
Source text: as §3, §4

[3] = target: T7, human EDAR domains II and III fused to Fc of human IgG1 (human, UniProt Q9R187 73-150 (mouse entry), limits assumed); test: as above
T7 construct: also called CRD2 and CRD3 EDAR-Fc truncation protein; not shown: Fc region of human IgG1
T7 sequence: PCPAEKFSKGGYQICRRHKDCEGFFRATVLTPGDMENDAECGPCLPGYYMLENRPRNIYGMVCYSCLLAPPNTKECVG
Source text: as §3, §4

[4] = target: T8, human EDAR stalk domain alone fused to Fc of human IgG1 (human, limits assumed); test: as above
T8 construct: also called stalk EDAR-Fc truncation protein; not shown: Fc region of human IgG1
T8 chain: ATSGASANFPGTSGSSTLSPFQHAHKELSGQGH
Source text: as §3, §4

[5] = target: T9, human EDAR domain II alone fused to Fc of human IgG1 (human, UniProt Q9R187 73-114 (mouse entry), limits assumed); test: as above
T9 construct: also called CRD2 EDAR-Fc truncation protein; not shown: Fc region of human IgG1
T9 chain: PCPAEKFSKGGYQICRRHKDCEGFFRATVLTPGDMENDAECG
Source text: as §3, §4

[6] = target: T10, human EDAR domain III and the stalk domain fused to Fc of human IgG1 (human, UniProt Q9UNE0 115-183, limits assumed); test: as above
T10 construct: also called CRD3 and stalk EDAR-Fc truncation protein; not shown: Fc region of human IgG1
T10 sequence: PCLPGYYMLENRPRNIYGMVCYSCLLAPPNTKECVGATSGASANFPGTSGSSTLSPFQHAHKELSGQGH
Source text: as §3, §4

[7] = target: T11, human EDAR domain I alone fused to Fc of human IgG1 (human, UniProt Q9UNE0 27-72); test: as above
T11 construct: also called CRD1 EDAR-Fc truncation protein; not shown: Fc region of human IgG1
T11 chain: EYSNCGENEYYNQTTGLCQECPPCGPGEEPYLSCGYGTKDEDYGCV
Source text: as §3, §4

T1 sequence (chain, as listed by the source limits assumed): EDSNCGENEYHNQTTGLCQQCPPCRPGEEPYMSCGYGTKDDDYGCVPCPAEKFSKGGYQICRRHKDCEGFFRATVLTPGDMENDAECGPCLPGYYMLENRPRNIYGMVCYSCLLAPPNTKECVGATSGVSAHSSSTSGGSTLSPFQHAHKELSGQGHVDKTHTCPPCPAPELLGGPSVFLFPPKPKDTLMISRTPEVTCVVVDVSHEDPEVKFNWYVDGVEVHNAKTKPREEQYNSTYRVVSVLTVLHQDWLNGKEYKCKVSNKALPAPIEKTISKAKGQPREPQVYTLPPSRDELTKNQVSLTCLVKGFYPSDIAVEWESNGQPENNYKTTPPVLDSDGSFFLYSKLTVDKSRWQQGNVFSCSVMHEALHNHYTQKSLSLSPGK

B1: mAbEDAR2 (antibody, IgG1, V domains shown)
VH: QVQLQQPGAELVKPGASVKLSCKASGYTFTSYWMQWVKQRPGQGIEWIGEIDPSDSYTYYNQKFKGKATLTIDKSSSTAYMQLSSLTSEDSAVYYCSRKNYYRGMDYWGQGTSVTVSS
VL: DVLMTQTPLSLPVSLGDQASISCRSSQNIVQSNGNTYLEWYLQKPGQSPKLLIYKVSNRFSGVPDRFSGSGSGTDFTLKISRVEADDLGVYYCFQVSHVPYTFGGGTKLEIKR
notes: Light chain identical to that of mAbEDAR4; also called anti-EDAR mAb mAbEDAR2
binding result (mouse EDAR-Fc): binds | binding result (human Fas-Fc): no binding | binding result (human EDAR-Fc): binds | binding result [1]: binds | binding result (Flag-human APRIL): no binding | binding result [2]: no binding | binding result [3]: no binding | binding result [4]: no binding | binding result [5]: no binding | binding result [6]: no binding | binding result [7]: no binding
